The values that follow are results of earlier work, collected in patent publication US11130803B2, “Isoform-selective TGFβ1 inhibitors and use thereof” (Scholar Rock, Inc., priority 2018, dated 2021).

For this data set, the system named is mdx mice. The following applies: cited from earlier work.

B1: decorin: proteoglycan abundant in skeletal muscle that inhibits TGFβ activity (protein, UniProt P07585 31-359, looked up)
Decorin: DEASGIGPEVPDDRDFEPSLGPVCPFRCQCHLRVVQCSDLGLDKVPKDLPPDTTLLDLQNNKITEIKDGDFKNLKNLHALILVNNKISKVSPGAFTPLVKLERLYLSKNQLKELPEKMPKTLQELRAHENEITKVRKVTFNGLNQMIVIELGTNPLKSSGIENGAFQGMKKLSYIRIADTNITSIPQGLPPSLTELHLDGNKISRVDAASLKGLNNLAKLGLSFNSISAVDNGSLANTPHLRELHLDNNKLTRVPGGLAEHKYIQVVYLHNNNISVVGSSDFCPPGHNTKKASYSGVSLFSNPVQYWEIQPSTFRCVYVRSAIQLGNYK
Consider B1, for which the muscle fibrosis result is “decreases muscle fibrosis”.
